By stoichiometry N is commonly meant a count of units in the complex or per binding partner.

The data set deals with the molecule itself. The data set can be described thus: cryo-EM structure.

B1: E. coli stringent starvation protein A (SspA), wild type (natural protein)
chain: MAVAANKRSVMTLFSGPTDIYSHQVRIVLAEKGVSFEIEHVEKDNPPQDLIDLNPNQSVPTLVDRELTLWESRIIMEYLDERFPHPPLMPVYPVARGESRLYMHRIEKDWYTLMNTIINGSASEADAARKQLREELLAIAPVFGQKPYFLSDEFSLVDCYLAPLLWRLPQLGIEFSGPGAKELKGYMTRVFERDSFLASLTEAEREMRLGRS
In the case of B1, the “stoichiometry N” value stood at 2.

(Values after paper PMC7515715 (Nucleic Acids Research, 2020).)
